Our source for the percent of parent and other: pEC50 values is article doi:10.1101/2023.07.07.547762.

The assay concerns the target NES-Venus-miniGs. Put plainly: BRET (NanoLuc-labelled receptor and Venus-labelled mini-Gs recruitment). Conditions: three independent experiments; for percent of parent: Emax of the DMCH concentration-response; for other: pEC50: pEC50 of the agonist DMCH for mini-Gs recruitment. In general terms: Bioluminescence resonance energy transfer reports proximity on the nanometre scale.

“mTAAR7f with N-terminal twin-strep tag and SNAP-tag and C-terminal nanoluc (wild type) (from UniProt Q5QD08) Y289A”: the percent of parent was found to be 47% and the other: pEC50 stood at 4.2.

Take “mTAAR7f with N-terminal twin-strep tag and SNAP-tag and C-terminal nanoluc (wild type) (from UniProt Q5QD08) C131A”: the percent of parent amounted to 60% and the other: pEC50 worked out at 4.9. For “mTAAR7f with N-terminal twin-strep tag and SNAP-tag and C-terminal nanoluc (wild type) (from UniProt Q5QD08) V315A”, the percent of parent was found to be 0%.

In the case of “mTAAR7f with N-terminal twin-strep tag and SNAP-tag and C-terminal nanoluc (wild type) (from UniProt Q5QD08) D127A”, the percent of parent came to 0%. For the substance “mTAAR7f with N-terminal twin-strep tag and SNAP-tag and C-terminal nanoluc (wild type) (from UniProt Q5QD08) Y132A”, the percent of parent is 17% and the other: pEC50 came to 3.6. Consider “mTAAR7f with N-terminal twin-strep tag and SNAP-tag and C-terminal nanoluc (wild type) (from UniProt Q5QD08) W286Y”, for which the percent of parent came out at 24% and the other: pEC50 was found to be 5.3.
